For one data set, the target named is T1, enantioselective amidase (Rhodococcus erythropolis, UniProt P22984).
T1 sequence (P22984 2-521): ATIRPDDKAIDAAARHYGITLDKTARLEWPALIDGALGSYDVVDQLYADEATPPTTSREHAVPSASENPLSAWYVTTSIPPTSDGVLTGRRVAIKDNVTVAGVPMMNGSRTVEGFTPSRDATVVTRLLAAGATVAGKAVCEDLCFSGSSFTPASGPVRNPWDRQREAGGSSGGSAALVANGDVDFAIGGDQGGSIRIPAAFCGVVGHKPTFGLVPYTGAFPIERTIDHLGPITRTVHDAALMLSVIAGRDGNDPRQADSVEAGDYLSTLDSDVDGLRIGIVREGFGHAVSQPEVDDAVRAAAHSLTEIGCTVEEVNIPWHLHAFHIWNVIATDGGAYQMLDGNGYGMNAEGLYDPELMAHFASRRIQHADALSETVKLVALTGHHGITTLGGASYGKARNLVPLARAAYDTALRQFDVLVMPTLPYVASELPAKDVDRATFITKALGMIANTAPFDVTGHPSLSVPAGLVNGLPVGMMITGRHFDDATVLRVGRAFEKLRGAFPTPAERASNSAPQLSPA
As to the kind of experiment: Substrate preference of the enantioselective amidase. In kind it is biochemical, Brevibacterium R 312. The note with it: compared with the 2-arylpropionamide derivatives, especially 2-phenylpropionamide and 2-(3-benzoylphenyl)propionamide. The source says:
Furthermore, the selectivity of the amidase towards the R enantiomer of HPPAmide is representative of the selectivity towards the S enantiomer of the 2-arylpropionamide derivatives.

Data set [1] can be described thus: Assay of the enzymic activity: hydrolysis of 2-phenylpropionamide (HPLC). The format is biochemical. The note with it: enzyme purified to homogeneity; 1 unit = 1 μmol of 2-phenylpropionamide hydrolyzed per h; 30° C., pH 7.5. How it is done: The fraction containing the activity is incubated for 30 min at 30° C. in 500 μl of 0.1 M Tris/HCl buffer, pH 7.5, containing 5 mM DTT and 18.1 mM 2-phenylpropionamide. After incubation, 2 ml of an acetonitrile/1 N HCl mixture (90/10) and then 2 ml of a 50 mM H3 PO4 /CH3 CN mixture (75/25) are added to the incubation mixture. After centrifugation at 5000 g for 10 min, an aliquot of the supernatant is injected into an HPLC apparatus for assay of the reaction products.
Column: Nucleosil 5-C18 25 cm
One activity unit is defined as the amount of enzyme required to hydrolyze 1 μmol of 2-phenylpropionamide per h.

A short description of data set [2]: Enantioselective amidase activity with HPPAmide as substrate (HPLC). The format is biochemical. The note with it: purified enzyme, purity of more than 80%; 1 U = 1 μmol of HPPAcid formed per hour. The protocol: b--one unit (U) is equivalent to 1 μmol of HPPAcid formed per hour under the conditions described below.
Consequently, the enantioselective enzymic activity was detected by using 2-(4-hydroxyphenoxy)propionamide (HPPAmide) as the substrate. The reaction is carried out at 25° C., with shaking, in a 50 mM sodium phosphate buffer, pH 7.0, in the presence of Brevibacterium R 312, and is stopped by the addition of a 55/40/5 (v/v) mixture of 0.05 M phosphoric acid, acetonitrile and 1 N HCl. The culture is then centrifuged and the supernatant is analyzed by reversed-phase HPLC (Hibar-Merck RP-18; 5 μm). Elution is effected with an 85/15 (v/v) solution of 0.005 M phosphoric acid and acetonitrile and the respective concentrations of HPPAmide and HPPAcid are measured by the position of the elution peaks and compared with a standard. The enantiomeric excess, defined as the ratio (R-S)/(R+S) x 100, in which R and S are the respective concentrations of the R and S enantiomers of the HPPAcid, is deduced either from polarimetric measurements (using the sodium absorption at 589 nm) or from HPLC analysis on a chiral column.

As to `CC(Oc1ccc(O)cc1)C(N)=O` (racemic) [R,S-2-(4-Hydroxyphenoxy)propionamide], on enantioselective amidase, the “substrate quality for the enantioselective amidase” value is “better substrate”.

B1: enantioselective amidase of a Rhodococcus: enzyme purified to homogeneity from a Rhodococcus; sequence in FIG. 14 (protein)
chain: GLHELTLAQVAAKIENKELSPVELLDVILARVAEIEPKISAFVTITADSARKAARLAADEIAGGHYRGPLHGVPIGLKDLFEVAGVPNTASSRVRADYIPSSDGAAVEKLTAGGAVMIGKTHTHEFAYGAITPTTRNPWDPTRTPGGSSGGTAAALAAGLIFAGMGTDTGGSIRIPAAVCGTVGLKPTYGRVSRRGVTSLSWSLDHAGPLARTVEDAAIMLNQIAGYDRADPATVDVPVPDYAAALTGDVRGLRIGVPTNFYTDNVHPEVAAAADAAVAQLAHLGAVVREVKIPMAEVIVPTEWSLLVPEASAYHQQMLRERADHYTDETRTFLEAGELVPATDYIKALRVRTLIQAAFRELFQDIDVLIAPTVSSPALPLDDLEVTWPDGTSEGGTITYVRLSAPGNVTGLPALSVPSGFTEQGLPTGIQIIGRPFDEETVLNVGHAYEGCTDWPRLAPL
As to B1, the specific activity in data set [1] is recorded as 988 U/mg of protein.

B2: enantioselective amidase of Brevibacterium R 312: enzyme purified from Brevibacterium R 312, purity of more than 80%; sequence in FIG. 9 (protein)
chain: MATIRPDDKAIDAAARHYGITLDKTARLEWPALIDGALGSYDVVDQLYADEATPPTTSAEHAVPSASENPLSAWYVTTSIPPTSDGVLTGRRVAIKDNVTVAGVPMMNGSRTVEGFTPSRDATVVTRLLAAGATVAGKAVCEDLCFSGSSFTPASGPVRNPWDRQREAGGSSGGSAALVANGDVDFAIGGDQGGSIRIPAAFCGVVGHKPTFGLVPYTGAFPIERTIDHLGPITRTVHDAALMLSVIAGRDGNDPRQADSVEAGDYLSTLDSDVDGLRIGIVREGFGHAVSQPEVDDAVRAAAHSLTEIGCTVEEVNIPWHLHAFHIWNVIATDGGAYQMLDGNGYGMNAEGLYDPELMAHFASRRIQHADALSETVKLVALTGHHGITTLGGASYGKARNLVPLARAAYDTALRQFDVLVMPTLPYVASELPAKDVDRATFITKALGMIANTAPFDVTGHPSLSVPAGLVNGLPVGMMITGRHFDDATVLRVGRAFEKLRGAFPTPAERASNSAPQLSPA
As to B2, the specific activity in data set [2] is given as 815 U/mg.
